System: Arabidopsis thaliana T1 plants
Experiment: Topramezone tolerance of transgenic Arabidopsis thaliana T1 plants (pesticide damage grade by bleached leaf area, score, resistance evaluation)
Assay type: in vivo
Details: HPPDs from ecotypes of Triticum aestivum; for Classification and statistics of pesticide damage grade: Grade 0 / Classification and statistics of pesticide damage grade: Grade 1 / Classification and statistics of pesticide damage grade: Grade 2 / Classification and statistics of pesticide damage grade: Grade 3: number of plants
Procedure, shortened: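 Eighteen days after sowing, wild-type and HPPD-transgenic T1 Arabidopsis receive a topramezone spray at 1×, 2× or 4× field rate (25–100 g ai/ha) or water. Seven days later each plant is graded by its proportion of bleached leaf area.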

Molecule | Resistance evaluation (topramezone 25 g ai/ha (1x)) | Scores (topramezone 25 g ai/ha (1x)) | Classification and statistics of pesticide damage grade: Grade 0 (topramezone 25 g ai/ha (1x)) | Classification and statistics of pesticide damage grade: Grade 1 (topramezone 25 g ai/ha (1x)) | Classification and statistics of pesticide damage grade: Grade 2 (topramezone 25 g ai/ha (1x)) | Classification and statistics of pesticide damage grade: Grade 3 (topramezone 25 g ai/ha (1x)) | Resistance evaluation (topramezone 100 g ai/ha (4x)) | Scores (topramezone 100 g ai/ha (4x)) | Classification and statistics of pesticide damage grade: Grade 0 (topramezone 100 g ai/ha (4x)) | Classification and statistics of pesticide damage grade: Grade 1 (topramezone 100 g ai/ha (4x)) | Classification and statistics of pesticide damage grade: Grade 2 (topramezone 100 g ai/ha (4x)) | Classification and statistics of pesticide damage grade: Grade 3 (topramezone 100 g ai/ha (4x))
TaHPPD5-02: native HPPD of Triticum aestivum ecotype 5, UniProt A0A3B6NNK0, SEQ ID NO: 201 (protein, listed as Triticum aestivum, TaHPPD5 Amino Acid Sequence) MPPTPTTPAATGAAAVTPEHARPRRMVRFNPRSDRFHTLAFHHVEFWCADAASAAGRFAFALGAPLAARSDLSTGNSVHASQLLRSGNLAFLFTAPYANGCDAATASLPSFSADAARQFSADHGLAVRSIALRVADAAEAFRASVDGGARPAFSPVDLGRGFGFAEVELYGDVVLRFVSHPDGRDVPFLPGFEGVSNPDAVDYGLTRFDHVVGNVPELAPAAAYVAGFTGFHEFAEFTTEDVGTAESGLNSMVLANNSEGVLLPLNEPVHGTKRRSQIQTFLEHHGGSGVQHIAVASSDVLRTLREMRARSAMGGFDFLPPPLPKYYEGVRRIAGDVLSEAQIKECQELGVLVDRDDQGVLLQIFTKPVGDRPTLFLEMIQRIGCMEKDELFKSIEDYEKSLEAKQSAAVQGS | non-resistant (non-resistant plants (scores 68-100)) | 83 | 0 | 0 | 8 | 8 | non-resistant (non-resistant plants (scores 68-100)) | 96 | 0 | 0 | 2 | 14
TaHPPD5m-F372A-02: Triticum aestivum ecotype 5 HPPD mutant F372A, SEQ ID NO: 204 (protein, TaHPPD5m-F372A Amino Acid Sequence) MPPTPTTPAATGAAAVTPEHARPRRMVRFNPRSDRFHTLAFHHVEFWCADAASAAGRFAFALGAPLAARSDLSTGNSVHASQLLRSGNLAFLFTAPYANGCDAATASLPSFSADAARQFSADHGLAVRSIALRVADAAEAFRASVDGGARPAFSPVDLGRGFGFAEVELYGDVVLRFVSHPDGRDVPFLPGFEGVSNPDAVDYGLTRFDHVVGNVPELAPAAAYVAGFTGFHEFAEFTTEDVGTAESGLNSMVLANNSEGVLLPLNEPVHGTKRRSQIQTFLEHHGGSGVQHIAVASSDVLRTLREMRARSAMGGFDFLPPPLPKYYEGVRRIAGDVLSEAQIKECQELGVLVDRDDQGVLLQIATKPVGDRPTLFLEMIQRIGCMEKDELFKSIEDYEKSLEAKQSAAVQGS | highly resistant (highly resistant plants (scores 0-15)) | 0 | 16 | 0 | 0 | 0 | moderately resistant (moderately resistant plants (scores 16-33)) | 23 | 6 | 9 | 1 | 0
TaHPPD6-02: native HPPD of Triticum aestivum ecotype 6, UniProt A0A3B5YPS5, SEQ ID NO: 207 (protein, listed as Triticum aestivum, TaHPPD6 Amino Acid Sequence) MVRFNPGSDRFHTLAFHHIEFWCTDAASADGRFAFSLGAPLAARSDLSTGNSTHASQLLRPGSLAFLFTAPYANGCIFSVDAARRFFADHGLAVRSVALRVADAAKAFRASVDGGARPAFAPVDLGRGFGFAEVKLYGDVVLRFVSHPDGTDVPFLPGLFEGVSNPGAVHYGLTRFDHIVGNVPELAPAAAYVAGLTGFHEFAEFTTEDVGTAQSGLNSVVLANTSEGVPLLLNEPVHGTKRRRQIQTFLEHHGGPGVQHIAVASSEVFRTLREMHARSSMGGFDFLPPPLPKYYEGVRRLAGDVLSEAQIKECQELGVLVNRDDQGVLLQIFTKPVGDRPTFFLEMIQRIGCMEKDERGEEYQKGGCGGFGKGNISELFKSIEDYEKSLEAKQSAAVQGSYI | non-resistant (non-resistant plants (scores 68-100)) | 88 | 0 | 0 | 6 | 10 | non-resistant (non-resistant plants (scores 68-100)) | 96 | 0 | 0 | 2 | 14
TaHPPD6m-F372A-02: Triticum aestivum ecotype 6 HPPD mutant F372A, SEQ ID NO: 210 (protein, TaHPPD6m-F372A Amino Acid Sequence) MVRFNPGSDRFHTLAFHHIEFWCTDAASADGRFAFSLGAPLAARSDLSTGNSTHASQLLRPGSLAFLFTAPYANGCIFSVDAARRFFADHGLAVRSVALRVADAAKAFRASVDGGARPAFAPVDLGRGFGFAEVKLYGDVVLRFVSHPDGTDVPFLPGLFEGVSNPGAVHYGLTRFDHIVGNVPELAPAAAYVAGLTGFHEFAEFTTEDVGTAQSGLNSVVLANTSEGVPLLLNEPVHGTKRRRQIQTFLEHHGGPGVQHIAVASSEVFRTLREMHARSSMGGFDFLPPPLPKYYEGVRRLAGDVLSEAQIKECQELGVLVNRDDQGVLLQIATKPVGDRPTFFLEMIQRIGCMEKDERGEEYQKGGCGGFGKGNISELFKSIEDYEKSLEAKQSAAVQGSYI | highly resistant (highly resistant plants (scores 0-15)) | 0 | 16 | 0 | 0 | 0 | highly resistant (highly resistant plants (scores 0-15)) | 2 | 15 | 1 | 0 | 0
TaHPPD7-02: native HPPD of Triticum aestivum ecotype 7, UniProt A7WK82, SEQ ID NO: 213 (protein, listed as Triticum aestivum, TaHPPD7 Amino Acid Sequence) MPPTPTTPAATGAAAAAAVTPEHARPRRMVRFNPRSDRFHTLAFHHVEFWCADAASAAGRFAFALGAPLAARSDLSTGNSVHASQLLRSGNLAFLFTAPYANGCDAATASLPSFSADAARRFSADHGLAVRSIALRVADAAEAFRASVDGGARPAFSPVDLGRGFGFAEVELYGDVVLRFVSHPDGTDVPFLPGFEGVSNPDAVDYGLTRFDHVVGNVPELAPAAAYVAGFTGFHEFAEFTTEDVGTAESGLNSMVLANNSEGVLLPLNEPVHGTKRRSQIQTFLEHHGGPGVQHIAVASSDVLRTLREMRARSAMGGFDFLPPPLPKYYEGVRRIAGDVLSEAQIKECQELGVLVDRDDQGVLLQIFTKPVGDRPTCSWR | non-resistant (non-resistant plants (scores 68-100)) | 100 | 0 | 0 | 0 | 16 | non-resistant (non-resistant plants (scores 68-100)) | 100 | 0 | 0 | 0 | 16
TaHPPD7m-F372A-02: Triticum aestivum ecotype 7 HPPD mutant F372A, SEQ ID NO: 216 (protein, TaHPPD7m-F372A Amino Acid Sequence) MPPTPTTPAATGAAAAAAVTPEHARPRRMVRFNPRSDRFHTLAFHHVEFWCADAASAAGRFAFALGAPLAARSDLSTGNSVHASQLLRSGNLAFLFTAPYANGCDAATASLPSFSADAARRFSADHGLAVRSIALRVADAAEAFRASVDGGARPAFSPVDLGRGFGFAEVELYGDVVLRFVSHPDGTDVPFLPGFEGVSNPDAVDYGLTRFDHVVGNVPELAPAAAYVAGFTGFHEFAEFTTEDVGTAESGLNSMVLANNSEGVLLPLNEPVHGTKRRSQIQTFLEHHGGPGVQHIAVASSDVLRTLREMRARSAMGGFDFLPPPLPKYYEGVRRIAGDVLSEAQIKECQELGVLVDRDDQGVLLQIATKPVGDRPTCSWR | highly resistant (highly resistant plants (scores 0-15)) | 8 | 12 | 4 | 0 | 0 | moderately resistant (moderately resistant plants (scores 16-33)) | 21 | 6 | 10 | 0 | 0

From US20230212587A1, “Mutant Hydroxyphenylpyruvate Dioxygenase Polypeptide, Encoding Gene Thereof and Use Therefor” (Beijing Dabeinong Biotechnology Co., Ltd., priority 2019, published 2023)
